Results as given in patent US20240368664A1, “LIVE YEAST BIOSENSORS AND METHODS OF USE THEREOF” (priority 2021, published 2024).
Values joined by “and” are separate entries in the source; they are usually repeats but may differ in a detail not shown here. Identical values can stand only once. Like-named read-outs stand apart in the source and are kept apart here. No end group written: not given here.

Experiments:
[1] = Cyclic voltammetry of peptides and copper-peptide complexes; type: physicochemical; conditions: for potential peaks in cyclic voltammogram: 500 μM peptide in 10 mM KCl, scan rates 0.2, 0.1, 0.05 V/s; for redox potential peak of the Cu2+ complex: 1 mM tripeptide, 1 mM CuCl2, 50 mM Tris/HCl (pH 7.4), 0.1 M NaClO4, glassy carbon, 0.3 V/s
[2] = biological target: T1, Botrytis cinerea cognate pheromone receptor (BcSte2) (Botrytis cinerea); assay: cell-based or functional assay
T1 sequence: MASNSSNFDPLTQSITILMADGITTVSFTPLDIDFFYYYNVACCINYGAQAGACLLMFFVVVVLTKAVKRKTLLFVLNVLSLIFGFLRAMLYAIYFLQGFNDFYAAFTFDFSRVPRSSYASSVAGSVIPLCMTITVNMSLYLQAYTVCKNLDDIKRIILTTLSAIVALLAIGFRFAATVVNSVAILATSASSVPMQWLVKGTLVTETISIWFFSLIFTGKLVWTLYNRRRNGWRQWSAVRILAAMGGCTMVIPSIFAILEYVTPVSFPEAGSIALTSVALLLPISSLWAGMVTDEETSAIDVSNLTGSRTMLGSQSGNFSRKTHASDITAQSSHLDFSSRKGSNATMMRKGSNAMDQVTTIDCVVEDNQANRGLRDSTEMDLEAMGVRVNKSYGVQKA

[3] = biological target: T2, Candida albicans pheromone GPCR CaSte2 (Candida albicans); assay: cell-based or functional assay
T2 sequence: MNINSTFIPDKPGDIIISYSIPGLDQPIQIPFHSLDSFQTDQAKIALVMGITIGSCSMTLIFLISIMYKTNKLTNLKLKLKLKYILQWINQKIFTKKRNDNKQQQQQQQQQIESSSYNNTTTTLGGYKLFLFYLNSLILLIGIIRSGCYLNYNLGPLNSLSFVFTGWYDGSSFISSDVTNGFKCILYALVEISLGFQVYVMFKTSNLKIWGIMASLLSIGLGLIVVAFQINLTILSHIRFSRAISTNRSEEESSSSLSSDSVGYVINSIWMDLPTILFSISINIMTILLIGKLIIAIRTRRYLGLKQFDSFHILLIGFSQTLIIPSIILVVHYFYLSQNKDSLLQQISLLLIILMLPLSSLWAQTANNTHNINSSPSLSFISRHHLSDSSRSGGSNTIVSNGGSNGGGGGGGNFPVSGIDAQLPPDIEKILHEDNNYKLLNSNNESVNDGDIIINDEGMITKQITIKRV

[4] = biological target: T2, Candida albicans pheromone GPCR CaSte2 (Candida albicans); assay: cell-based or functional assay; design: EC50 compared to the native CaPep (orders of magnitude): unit not given beside the values
A. clavatus GPCR = type: cell-based; conditions: 40 μM peptide
Protocol: (§1) FIGS. 6A-6B show Aspergillus spp peptide cross-reactivity with Aspergillus spp GPCRs. […] The test concentration was set at 40 μM of a given peptide ligand.
(§2) Next, 13 GPCRs of all genome-mined Aspergillus species, including A. fumigatus from Example 1 and S. cerevisiae, along with inducible fluorescent readout were integrated into optimized parent strain. S. cerevisiae was included to test cross-reactivity with S. cerevisiae GPCR and peptide, since this peptide/GPCR pair will be used for building multi-cellular amplification communities. Then, each strain was activated with all Aspergillus peptides and S. cerevisiae peptide (FIG. 6A). Most of the Aspergillus GPCRs were responsive to at least one peptide, except A. terreus, A. flavus/A. oryzae (same GPCR sequence), A. niger and A. nidulans which were not responsive to any tested peptide. […] The majority of peptides have the same sequence (A. fischeri, A. fumigatus, A. lentulus, A. novofumigatus, A. udagawae and A. viridinutans) and the other active peptides differ only in the third amino acid position from N-terminus (A. clavatus, A. flavus and A. oryzae).

[5] = system: SoSte2 with peptide proteases; type: cell-based, Schizosaccharomyces octosporus
[6] = biological target: T3, Candida parapsilosis pheromone GPCR CpSte2 (native) (Candida parapsilosis); assay: cell-based or functional assay
T3 sequence: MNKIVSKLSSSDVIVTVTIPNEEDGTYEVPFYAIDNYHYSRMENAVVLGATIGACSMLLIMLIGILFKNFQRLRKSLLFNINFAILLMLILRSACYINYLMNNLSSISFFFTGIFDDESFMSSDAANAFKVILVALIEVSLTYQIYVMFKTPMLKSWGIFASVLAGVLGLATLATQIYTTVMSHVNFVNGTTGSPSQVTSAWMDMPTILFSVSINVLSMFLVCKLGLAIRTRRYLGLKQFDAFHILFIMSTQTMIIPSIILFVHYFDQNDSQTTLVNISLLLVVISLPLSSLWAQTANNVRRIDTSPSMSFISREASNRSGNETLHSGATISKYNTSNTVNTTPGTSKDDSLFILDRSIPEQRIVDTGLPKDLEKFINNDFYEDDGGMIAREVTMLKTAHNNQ

[7] = biological target: SpSte2 with peptide proteases (Schizosaccharomyces pombe, UniProt Q00619); assay: SpSte2 biosensor dose-response with complementary and non-complementary proteases; type: cell-based
CpSte2 = type: cell-based, Candida parapsilosis
[8] = system: Aspergillus spp and S. cerevisiae GPCRs; type: cell-based; conditions: 40 μM peptide
Protocol: as §1, §2

[9] = Metal-binding peptide absorbance scan; type: physicochemical
[10] = biological target: T4, Candida albicans pheromone GPCR CaSte2 (Candida albicans); assay: cell-based or functional assay
T4 chain: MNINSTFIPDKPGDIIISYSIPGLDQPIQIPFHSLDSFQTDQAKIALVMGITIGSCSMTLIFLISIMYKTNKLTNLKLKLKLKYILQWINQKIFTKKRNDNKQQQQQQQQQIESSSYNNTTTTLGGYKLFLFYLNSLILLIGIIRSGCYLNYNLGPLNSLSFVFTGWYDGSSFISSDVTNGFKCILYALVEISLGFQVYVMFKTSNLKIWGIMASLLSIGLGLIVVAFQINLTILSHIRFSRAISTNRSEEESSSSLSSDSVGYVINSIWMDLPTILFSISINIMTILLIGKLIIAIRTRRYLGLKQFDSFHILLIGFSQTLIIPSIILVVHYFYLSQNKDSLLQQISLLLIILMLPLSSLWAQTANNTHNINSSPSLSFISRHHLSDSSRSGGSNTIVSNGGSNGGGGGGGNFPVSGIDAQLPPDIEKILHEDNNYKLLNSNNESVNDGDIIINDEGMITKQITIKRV

[11] = 1 mM copper, 1 mM peptide, 50 mM Tris/HCl, NaClO4 buffer

Chain of SpSte2 with peptide proteases (Q00619 whole entry): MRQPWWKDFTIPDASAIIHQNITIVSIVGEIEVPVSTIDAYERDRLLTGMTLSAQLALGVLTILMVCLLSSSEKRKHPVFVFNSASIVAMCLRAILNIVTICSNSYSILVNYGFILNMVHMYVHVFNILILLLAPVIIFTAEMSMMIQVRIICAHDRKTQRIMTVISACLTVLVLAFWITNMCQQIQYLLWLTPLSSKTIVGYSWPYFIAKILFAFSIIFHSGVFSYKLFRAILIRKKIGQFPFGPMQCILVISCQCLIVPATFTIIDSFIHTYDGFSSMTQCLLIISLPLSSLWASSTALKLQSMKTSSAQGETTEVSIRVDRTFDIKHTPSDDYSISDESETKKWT

With “GWIGRCGVPGSSC [BcomPep, Baudoinia compniacensis mating peptide]” the “potential peaks in cyclic voltammogram” value [1] was “None of the tested peptides showed any unique and distinguishable potential peaks”.

Work on “BcPep with its first cysteine changed into serine (peptide)” yielded a maximal activation compared to the original BcPep [2] of 4 fold.

In the case of CaPep9A10A (peptide), the LogEC50 [3] is reported as -4.7 log M and -4.6 log M, the Top [3] is reported as 570 A.U. and 510 A.U and the EC50 compared to the native CaPep (orders of magnitude) [4] is reported as 2.

Work on “BcPep with its second cysteine changed into serine (peptide)” yielded a maximal activation compared to the original BcPep [2] of 4 fold.

In the case of WCALPGQGC [A. oryzae peptide], the “response of A. clavatus GPCR” value (A. clavatus GPCR) is reported as “strongest response”.

In the case of TYEDFLRVYKNWWSFQNPDRPDL [SoPep], the “cleavage by ScBar1 and CaBar1” value [5] is reported as “did not cleave”, the “shift of apparent EC50 by non-complementary proteases” value [5] is reported as “between half and one order of magnitude” and the “shift of apparent EC50 towards higher concentration by complementary protease” value [5] is reported as “one and a half orders of magnitude”.

“Candida parapsilosis cognate peptide (CpPep)” gave an EC50, mCherry, yMJ194 [6] of 3 nM, an EC50, mCherry, yTC453 [6] of 9 nM and a maximal activation, mCherry, yMJ194 [6] of 250 A.U. The maximal activation, mCherry, yTC453 [6] was 3300 A.U.

With CaPep12A (peptide) the LogEC50 [3] was -5.3 log M and -5 log M, the Top [3] was 580 A.U. and 540 A.U and the EC50 compared to the native CaPep (orders of magnitude) [4] was 2.

In the case of TYADFLRAYQSWNTFVNPDRPNL [SpPep], the EC50 [7] is reported as greater than 100000 nM, the “cleavage by ScBar1 and CaBar1” value ([7]; ScBar1, CaBar1) is reported as “did not cleave” and the “shift of apparent EC50 by non-complementary proteases” value ([7]; SjSxa2 and SoSxa2) is reported as “between half and one order of magnitude”. The “response with complementary protease” value ([7]; SpSxa2, within measured concentration range) was “practically completely attenuated the response”.

With CaPep10A (peptide) the LogEC50 [3] was -4.6 log M and -4.2 log M, the Top [3] was 180 A.U. and 98 A.U and the EC50 compared to the native CaPep (orders of magnitude) [4] was 2.

In the case of His-Ala-His, the “redox potential peak of the Cu2+ complex” value [1] is reported as 1.1 V.

With CaPep11A (peptide) the Top [3] was 180 A.U. and 120 A.U and the decrease in maximal activation compared to the native CaPep [4] was 50%.

KPHWTTYGYYEPQ [CpPep] gave a basal expression (CpSte2; optimized strain yTC453) of roughly 0 A.U, an EC50 (CpSte2; yMJ194, natural pathway) of roughly 3 nM and a maximal activation (CpSte2; yMJ194, natural pathway) of roughly 250 A.U. For the same molecule, the EC50 (CpSte2; yTC453, optimized) was roughly 9 nM and the maximal activation (CpSte2; yTC453, optimized) was ~3,300 A.U.

For “WCRFAGRIC (SEQ ID NO: 1) or WCRFRGQVC [A. nidulans peptide]”, the “activation of tested GPCRs” value [8] was “did not activate any tested GPCR”.

For GHK, the “absorbance maxima of copper complexes” value [9, 11] was 620 nm and the “absorbance peaks of nickel complexes” value ([9]; nickel complexes) was “did not show absorbance peaks”.

For “AfPep: natural fungal peptide containing two cysteine residues (WCHLPGQGC; Synthetic: AfPep)”, the “potential peaks in cyclic voltammogram” value [1] was “None of the tested peptides showed any unique and distinguishable potential peaks”.

In the case of CaPep12A13A (peptide), the LogEC50 [3] is reported as -4.8 log M and -4.5 log M, the Top [3] is reported as 170 A.U and the EC50 compared to the native CaPep (orders of magnitude) [4] is reported as 2.

With WCVLPGQPC [A. niger peptide] the “activation of tested GPCRs” value [8] was “did not activate any tested GPCR”.

For His-His-Trp, the “redox potential peak of the Cu2+ complex” value [1] was 0.8 V, the “absorbance maxima of copper complexes” value [9, 11] was 620 nm and the “absorbance peaks of nickel complexes” value ([9]; nickel complexes) was “did not show absorbance peaks”.

For PHGGGWGQ, the “absorbance maxima of copper complexes” value [9] was 620 nm and the “absorbance peaks of nickel complexes” value [9] was “did not show absorbance peaks”.

With WCELPGQGC [A. clavatus peptide] the “response of A. clavatus GPCR” value (A. clavatus GPCR) was “strongest response”.

With GFRLTNFGYFEPA (modifications not checked) [CaPep13A] the EC50, lycopene readout, strains preincubated, +CaBar1 [10] was 1000 nM, the EC50, lycopene readout, strains preincubated, -CaBar1 [10] was 80 nM and the Top [10] was 820 A.U. and 590 A.U.

With GARLTNFGYFEPG (modifications not checked) [CaPep2A] the EC50, ymTurquoise2, strain with the protease CaBar1 [10] was 40 nM, the EC50, ymTurquoise2, strain without the protease [10] was 50 nM and the LogEC50 [10] was -7.4 log M and -6.9 log M. The Top [10] was 460 A.U. and 430 A.U.
